Our source for the protein stability index values is the supplement of paper PMC10567573.

B1: KRT18 (parent)
chain: KSQDLAKIMADIRAQYDELARKNR
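Further: lentivirally expressed fusions sorted by FACS into six bins by GFP to DsRed ratio, PSI derived from sequencing read proportions per bin multiplied by bin number.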

The variants in this data set derive from B1. Nature of the data set: protein stability index of a GFP-peptide fusion (GPS, HEK-293T) (PSI 1-6); higher = more stable. As to conditions: c terminus: a fixed tail appended.
Turning to KSQDLAKIMTDIRAQYDELARKNR [A10T], the protein stability index turned out to be 3.02.

Consider KSQDLAKIMEDIRAQYDELARKNR [A10E], for which the protein stability index turned out to be 3.18. For KSQDLAKIMIDIRAQYDELARKNR [A10I], the protein stability index turned out to be 2.73. In the case of KSQDLAKIMWDIRAQYDELARKNR [A10W], the protein stability index is 2.54. To KSQDLAKIMPDIRAQYDELARKNR [A10P] belongs 4.14. Take KSQDLAKIMFDIRAQYDELARKNR [A10F]: the protein stability index was 2.41.

In the case of KSQDLAKIMNDIRAQYDELARKNR [A10N], the protein stability index stood at 3.09. As for KSQDLAKIMYDIRAQYDELARKNR [A10Y], the protein stability index came to 2.51.

As to KSQDLAKIMCDIRAQYDELARKNR [A10C], the protein stability index is 2.91.

Turning to KSQDLAKIMQDIRAQYDELARKNR [A10Q], the protein stability index worked out at 2.89.

Take KSQDLAKIMMDIRAQYDELARKNR [A10M]: the protein stability index was found to be 2.3. To KSQDLAKIMRDIRAQYDELARKNR [A10R] belongs 2.4; to KSQDLAKIMKDIRAQYDELARKNR [A10K], 2.91; to KSQDLAKIMHDIRAQYDELARKNR [A10H], 2.75. On to KSQDLAKIMDDIRAQYDELARKNR [A10D], for which the protein stability index amounted to 2.57. For the variant KSQDLAKIMGDIRAQYDELARKNR [A10G], the protein stability index was determined as 3.81. To KSQDLAKIMVDIRAQYDELARKNR [A10V] belongs 3.23. Take KSQDLAKIMSDIRAQYDELARKNR [A10S]: the protein stability index is 2.84. To KSQDLAKIMLDIRAQYDELARKNR [A10L] belongs 2.68; to KSQDLTKIMADIRAQYDELARKNR [A6T], 2.94. Regarding KSQDLGKIMADIRAQYDELARKNR [A6G], the protein stability index was found to be 3.31.

For the variant KSQDLQKIMADIRAQYDELARKNR [A6Q], the protein stability index was determined as 3.14.

On to KSQDLFKIMADIRAQYDELARKNR [A6F], for which the protein stability index was 2.17. To KSQDLMKIMADIRAQYDELARKNR [A6M] belongs 2.33.

As for KSQDLDKIMADIRAQYDELARKNR [A6D], the protein stability index amounted to 2.8. As for KSQDLVKIMADIRAQYDELARKNR [A6V], the protein stability index is 2.29. Turning to KSQDLSKIMADIRAQYDELARKNR [A6S], the protein stability index was found to be 3.04. To KSQDLRKIMADIRAQYDELARKNR [A6R] belongs 2.54; to KSQDLYKIMADIRAQYDELARKNR [A6Y], 2.33. To KSQDLIKIMADIRAQYDELARKNR [A6I] belongs 2.01; to KSQDLHKIMADIRAQYDELARKNR [A6H], 2.71; to KSQDLPKIMADIRAQYDELARKNR [A6P], 3.61.

Consider KSQDLEKIMADIRAQYDELARKNR [A6E], for which the protein stability index worked out at 2.78. To KSQDLCKIMADIRAQYDELARKNR [A6C] belongs 2.66. To KSQDLNKIMADIRAQYDELARKNR [A6N] belongs 3.01; to KSQDLKKIMADIRAQYDELARKNR [A6K], 2.28; to KSQDLWKIMADIRAQYDELARKNR [A6W], 1.98. As to KSQDLLKIMADIRAQYDELARKNR [A6L], the protein stability index came to 2.65. To KSQDLAAIMADIRAQYDELARKNR [K7A] belongs 2.41; to KSQDLAIIMADIRAQYDELARKNR [K7I], 2.16; to KSQDLATIMADIRAQYDELARKNR [K7T], 2.67. As for KSQDLASIMADIRAQYDELARKNR [K7S], the protein stability index amounted to 2.46. Take KSQDLAEIMADIRAQYDELARKNR [K7E]: the protein stability index was 2.47. To KSQDLAGIMADIRAQYDELARKNR [K7G] belongs 3.14.

Regarding KSQDLAVIMADIRAQYDELARKNR [K7V], the protein stability index turned out to be 3.32. On to KSQDLAMIMADIRAQYDELARKNR [K7M], for which the protein stability index was 2.48. To KSQDLARIMADIRAQYDELARKNR [K7R] belongs 2.5. Turning to KSQDLACIMADIRAQYDELARKNR [K7C], the protein stability index is 2.63. As to KSQDLANIMADIRAQYDELARKNR [K7N], the protein stability index amounted to 2.86. To KSQDLAPIMADIRAQYDELARKNR [K7P] belongs 3.88; to KSQDLADIMADIRAQYDELARKNR [K7D], 2.76; to KSQDLAWIMADIRAQYDELARKNR [K7W], 2.14. As for KSQDLALIMADIRAQYDELARKNR [K7L], the protein stability index was determined as 2.37. Turning to KSQDLAHIMADIRAQYDELARKNR [K7H], the protein stability index amounted to 2.73.

Consider KSQDLAQIMADIRAQYDELARKNR [K7Q], for which the protein stability index amounted to 2.43. To KSQDLAFIMADIRAQYDELARKNR [K7F] belongs 1.9. To KSQDLAYIMADIRAQYDELARKNR [K7Y] belongs 1.86; to KSQDLAKIMADRRAQYDELARKNR [I12R], 3.74. To KSQDLAKIMADYRAQYDELARKNR [I12Y] belongs 3.55; to KSQDLAKIMADSRAQYDELARKNR [I12S], 4.36. KSQDLAKIMADLRAQYDELARKNR [I12L]: the protein stability index was determined as 2.65. To KSQDLAKIMADCRAQYDELARKNR [I12C] belongs 3.23. To KSQDLAKIMADFRAQYDELARKNR [I12F] belongs 3.03. Turning to KSQDLAKIMADTRAQYDELARKNR [I12T], the protein stability index worked out at 4.07. To KSQDLAKIMADVRAQYDELARKNR [I12V] belongs 3.28.

Regarding KSQDLAKIMADDRAQYDELARKNR [I12D], the protein stability index came out at 4.77. To KSQDLAKIMADWRAQYDELARKNR [I12W] belongs 1.88; to KSQDLAKIMADNRAQYDELARKNR [I12N], 4.26; to KSQDLAKIMADQRAQYDELARKNR [I12Q], 4.41.

With KSQDLAKIMADGRAQYDELARKNR [I12G], the protein stability index is 4.45. As to KSQDLAKIMADPRAQYDELARKNR [I12P], the protein stability index is 4.56. To KSQDLAKIMADMRAQYDELARKNR [I12M] belongs 4.04. With KSQDLAKIMADHRAQYDELARKNR [I12H], the protein stability index is 3.55. Consider KSQDLAKIMADERAQYDELARKNR [I12E], for which the protein stability index was 5.46.

Regarding KSQDLAKIMADKRAQYDELARKNR [I12K], the protein stability index worked out at 4.45. To KSQDLAKIMADARAQYDELARKNR [I12A] belongs 4; to KSQDLAKCMADIRAQYDELARKNR [I8C], 3.37; to KSQDLAKSMADIRAQYDELARKNR [I8S], 4.34.

On to KSQDLAKNMADIRAQYDELARKNR [I8N], for which the protein stability index worked out at 3.86. With KSQDLAKAMADIRAQYDELARKNR [I8A], the protein stability index came out at 3.06. To KSQDLAKDMADIRAQYDELARKNR [I8D] belongs 4.13; to KSQDLAKFMADIRAQYDELARKNR [I8F], 1.64. To KSQDLAKRMADIRAQYDELARKNR [I8R] belongs 3.35; to KSQDLAKQMADIRAQYDELARKNR [I8Q], 4.1; to KSQDLAKGMADIRAQYDELARKNR [I8G], 4.54. With KSQDLAKYMADIRAQYDELARKNR [I8Y], the protein stability index worked out at 3.23. To KSQDLAKEMADIRAQYDELARKNR [I8E] belongs 4.17; to KSQDLAKPMADIRAQYDELARKNR [I8P], 4.5.

In the case of KSQDLAKTMADIRAQYDELARKNR [I8T], the protein stability index amounted to 3.27. To KSQDLAKMMADIRAQYDELARKNR [I8M] belongs 3.42. To KSQDLAKVMADIRAQYDELARKNR [I8V] belongs 2.99; to KSQDLAKKMADIRAQYDELARKNR [I8K], 3.79; to KSQDLAKLMADIRAQYDELARKNR [I8L], 3.13.

Take KSQDLAKWMADIRAQYDELARKNR [I8W]: the protein stability index is 2.4.
